Test results from the nanobody polyreactivity screen of Harvey et al. (2022).

Assay: yeast display, Sf9 membrane polyspecificity reagent, FACS + sequencing; frameworks hold sequencing errors
Outline: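 Galactose induction of a Saccharomyces cerevisiae BJ5465 synthetic nanobody display library ran 36–48 hours. The cells were then stained for 1 hour at 4 °C with 10% biotinylated, detergent-solubilized Sf9 membrane reagent, pulled down on streptavidin microbeads and FACS-sorted into low and high (top ~1%) gates on expression and reagent-binding fluorescence. Labels for polyreactivity follow the gate of origin.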
For “QVQLVESGGGLVQAGGSLRLSCAASGSIFVYNAMGWYRQAPGKERELVAAIDTVGSTNYADSVKGRFTISRDNAKNTVYLQMNSLNPEDSAVYYCAVVTPYWSFYEQVIPSNYWGQGTQVSVSS”, the “polyreactivity (PSR sort gate)” value was “low polyreactivity”. In the case of “QVQLVESGGGLVQAGGSLRLSCAASGSIFVYNAMGWYRQAPGKERELVAAISSTGGSTYYADSVKGRFTISRDNAKNTVYLQMNSLKPEDTAVYYCARQGRYTRGDYWGQGTQVTVSS”, the “polyreactivity (PSR sort gate)” value is reported as “high polyreactivity”. For “QVQLVESGGGLVQAGGSLRLSCAASGSIFVYNAMGWYRQAPGKERELVARITGRGGRTYYADSVKGRFTISRDNAKNTVYLQMNSLKPEDTAVYYCAAAKYGDYRGSPYKYGYWGQGTQVTVSS”, the “polyreactivity (PSR sort gate)” value was “high polyreactivity”. For “QVQLVESGGGLVQAGGSLRLSCAASGSIFVYYAMGWYRQAPGKERELVAAIDVSDGGTYYAESVKGRFTISRDNAKNTVYLQMNSLKPEVTAVYYCAADQGIDVPYIGYDYWGQGTQVTVSS”, the “polyreactivity (PSR sort gate)” value was “high polyreactivity”. With “QVQLVESGGGLVQAGGSLRLSCAASGSIFVYYAMGWYRQAPGKERELVAGISRTGGRTYYADSVKGRFTISRDNAKITVYLQMNSLKPEDTAVYYCAAVSYYKSYGEFDYWGQGTQVTVSS” the “polyreactivity (PSR sort gate)” value was “high polyreactivity”. With “QVQLVESGGGLVQAGGSLRLSCAASGSIFVYYAMGWYRQAPGKERELVARIRIGGSTNYADSVKGRFTISRDNAKNTVYLQMNSLKPEDTAVYYCIKYSVLSRQRYSHPVNYDSWGQGTQVTVSS” the “polyreactivity (PSR sort gate)” value was “high polyreactivity”. With “QVQLVESGGGLVQAGGSLRLSCAASGSIFVYYVMGWYRQAPGKERELVAAISSGGRTYYADSVKGRFTISRDNAKNTVYLQMNSLKPEDTAVYYCAAVWYWTQDYDYWGQGTQVTVSS” the “polyreactivity (PSR sort gate)” value was “low polyreactivity”. In the case of “QVQLVESGGGLVQAGGSLRLSCAASGSIFWAYTMGWYRQAPGKERELVAAISASGGSTYYADSVKGRFTISRDNAKNTVYFQMNSLKPEDTAVYYCAAVYDLGYYGPIWAIVLDDYWGQGTQVTVSS”, the “polyreactivity (PSR sort gate)” value is reported as “low polyreactivity”. In the case of “QVQLVESGGGLVQAGGSLRLSCAASGSIFWFNAMGWYRQAPGKERELVAAISTGGGTNYADSVKGRFTISRDNAKNTLYLKMNSLKPEDTAVYYCATYKVSRYISYDYWGQGPQVTVSS”, the “polyreactivity (PSR sort gate)” value is reported as “low polyreactivity”. With “QVQLVESGGGLVQAGGSLRLSCAASGSIFWFYAMGWYRQAPGKERELVAAITSTGGTYYADSVKGRFTISRDNAKNTVYLQMNSLKPEDTAVYYCAADRIGGPGSYLYDYWGQGTQVTVSS” the “polyreactivity (PSR sort gate)” value was “low polyreactivity”. For “QVQLVESGGGLVQAGGSLRLSCAASGSIFWFYGMGWYRQAPGKERELVAAISWSGGNTYADSVKGRFTISRDNAKNTVYVQMNSLKPEDTAVYYCNAVVRAYYTSIWVPRYDYWGQGTQVTVSS”, the “polyreactivity (PSR sort gate)” value was “high polyreactivity”. In the case of “QVQLVESGGGLVQAGGSLRLSCAASGSIFWGNAMGWYRQAPGKERELVAAIRRGTSTYYADSVKGRFTISRDNAKNTVYVQMNSLKPEDTAVYYCAASPFRYVYHFDYWGQGTQVTVSS”, the “polyreactivity (PSR sort gate)” value is reported as “high polyreactivity”. For “QVQLVESGGGLVQAGGSLRLSCAASGSIFWGYAMGWNRQAPRKEREMVATITYGGDSTYYADSVKGRFTISRDNAKNTVYLQMNSLKPEDTAVYYCNVGVEPYDYVYWGQGTQVTVSS”, the “polyreactivity (PSR sort gate)” value was “low polyreactivity”. In the case of “QVQLVESGGGLVQAGGSLRLSCAASGSIFWGYAMGWYRQAPGKERELVAVISRGGSTYYADSVKGRFTISRDNAKNTVYLQMNSLKPEDTAVYYCADSSSWFYSPEYDYWGQGTQVTVSS”, the “polyreactivity (PSR sort gate)” value is reported as “low polyreactivity”. For “QVQLVESGGGLVQAGGSLRLSCAASGSIFWGYDMGWYRQAPGKERELVASISYSGGSTSYADSVKGRFTISRDNAKNTVYLQMNSLKPEDTAVYYCAADEGGFWWTYPYDSWGQGTQVTVSS”, the “polyreactivity (PSR sort gate)” value was “low polyreactivity”. In the case of “QVQLVESGGGLVQAGGSLRLSCAASGSIFWKNVMGWYRHAPGKERELVAGISQNGGSTTYADSVKGRFTISRDNAKNTVYLQMNSLKPEDTAVYYCAAKRYGPFKYGYWGQGTQVTVSS”, the “polyreactivity (PSR sort gate)” value is reported as “high polyreactivity”.
